Data from the Human Domainome abundance scans (Beltran et al. 2025).
± gives the uncertainty stated by the source.

B1: POU domain, class 4, transcription factor 3, residues 185 to 256; numbered along this chain, Q15319 (parent)
chain: RELEAFAERFKQRRIKLGVTQADVGAALANLKIPGVGSLSQSTICRFESLTLSHNNMIALKPVLQAWLEEAE

Variants of: B1
Assay: abundance fitness (aPCA) (normalised: wild type 0, dead -1); higher = more abundant; growth selection in yeast, the domain comes from the species named
Details: Homo sapiens

RELEAFAERFKQRRIKLEVTQADVGAALANLKIPGVGSLSQSTICRFESLTLSHNNMIALKPVLQAWLEEAE and RELEAFAERFKQRRIKLFVTQADVGAALANLKIPGVGSLSQSTICRFESLTLSHNNMIALKPVLQAWLEEAE are within error of each other in abundance fitness: -0.514 ± 0.14 for the first, -0.784 ± 0.14 for the second.

Compared with RELEAFAERFKQRRIKLKVTQADVGAALANLKIPGVGSLSQSTICRFESLTLSHNNMIALKPVLQAWLEEAE, RELEAFAERFKQRRIKLLVTQADVGAALANLKIPGVGSLSQSTICRFESLTLSHNNMIALKPVLQAWLEEAE is lower in abundance fitness: -0.296 ± 0.15 for the first, -0.703 ± 0.064 for the second.

RELEAFAERFKQRRIKLNVTQADVGAALANLKIPGVGSLSQSTICRFESLTLSHNNMIALKPVLQAWLEEAE and RELEAFAERFKQRRIKLQVTQADVGAALANLKIPGVGSLSQSTICRFESLTLSHNNMIALKPVLQAWLEEAE are within error of each other in abundance fitness: -0.205 ± 0.33 for the first, -0.193 ± 0.12 for the second.

RELEAFAERFKQRRIKLRVTQADVGAALANLKIPGVGSLSQSTICRFESLTLSHNNMIALKPVLQAWLEEAE and RELEAFAERFKQRRIKLSVTQADVGAALANLKIPGVGSLSQSTICRFESLTLSHNNMIALKPVLQAWLEEAE are within error of each other in abundance fitness: -0.249 ± 0.11 for the first, -0.435 ± 0.08 for the second.

RELEAFAERFKQRRIKLTVTQADVGAALANLKIPGVGSLSQSTICRFESLTLSHNNMIALKPVLQAWLEEAE and RELEAFAERFKQRRIKLVVTQADVGAALANLKIPGVGSLSQSTICRFESLTLSHNNMIALKPVLQAWLEEAE are within error of each other in abundance fitness: -0.884 ± 0.2 for the first, -0.997 ± 0.15 for the second.

RELEAFAERFKQRRIKLWVTQADVGAALANLKIPGVGSLSQSTICRFESLTLSHNNMIALKPVLQAWLEEAE and RELEAFAERFKQRRIKLYVTQADVGAALANLKIPGVGSLSQSTICRFESLTLSHNNMIALKPVLQAWLEEAE are within error of each other in abundance fitness: -1.05 ± 0.2 for the first, -0.928 ± 0.29 for the second.

Going from RELEAFAERFKQRRIKLGFTQADVGAALANLKIPGVGSLSQSTICRFESLTLSHNNMIALKPVLQAWLEEAE to RELEAFAERFKQRRIKLGGTQADVGAALANLKIPGVGSLSQSTICRFESLTLSHNNMIALKPVLQAWLEEAE, the abundance fitness falls from 0.03 ± 0.048 to -0.391 ± 0.25.

RELEAFAERFKQRRIKLGHTQADVGAALANLKIPGVGSLSQSTICRFESLTLSHNNMIALKPVLQAWLEEAE and RELEAFAERFKQRRIKLGKTQADVGAALANLKIPGVGSLSQSTICRFESLTLSHNNMIALKPVLQAWLEEAE are within error of each other in abundance fitness: 0.007 ± 0.054 for the first, 0.078 ± 0.029 for the second.

First: RELEAFAERFKQRRIKLGLTQADVGAALANLKIPGVGSLSQSTICRFESLTLSHNNMIALKPVLQAWLEEAE
Second: RELEAFAERFKQRRIKLGMTQADVGAALANLKIPGVGSLSQSTICRFESLTLSHNNMIALKPVLQAWLEEAE
The abundance fitness of the first is lower: 0.011 ± 0.03 for the first, 0.12 ± 0.058 for the second.

Compared with RELEAFAERFKQRRIKLGNTQADVGAALANLKIPGVGSLSQSTICRFESLTLSHNNMIALKPVLQAWLEEAE, RELEAFAERFKQRRIKLGPTQADVGAALANLKIPGVGSLSQSTICRFESLTLSHNNMIALKPVLQAWLEEAE is lower in abundance fitness: -0.154 ± 0.077 for the first, -0.835 ± 0.048 for the second.

RELEAFAERFKQRRIKLGQTQADVGAALANLKIPGVGSLSQSTICRFESLTLSHNNMIALKPVLQAWLEEAE and RELEAFAERFKQRRIKLGSTQADVGAALANLKIPGVGSLSQSTICRFESLTLSHNNMIALKPVLQAWLEEAE are within error of each other in abundance fitness: -0.151 ± 0.055 for the first, -0.14 ± 0.029 for the second.

Going from RELEAFAERFKQRRIKLGTTQADVGAALANLKIPGVGSLSQSTICRFESLTLSHNNMIALKPVLQAWLEEAE to RELEAFAERFKQRRIKLGYTQADVGAALANLKIPGVGSLSQSTICRFESLTLSHNNMIALKPVLQAWLEEAE, the abundance fitness rises from -0.192 ± 0.039 to -0.01 ± 0.066.

Going from RELEAFAERFKQRRIKLGVAQADVGAALANLKIPGVGSLSQSTICRFESLTLSHNNMIALKPVLQAWLEEAE to RELEAFAERFKQRRIKLGVDQADVGAALANLKIPGVGSLSQSTICRFESLTLSHNNMIALKPVLQAWLEEAE, the abundance fitness falls from -0.229 ± 0.031 to -0.562 ± 0.19.

RELEAFAERFKQRRIKLGVEQADVGAALANLKIPGVGSLSQSTICRFESLTLSHNNMIALKPVLQAWLEEAE and RELEAFAERFKQRRIKLGVGQADVGAALANLKIPGVGSLSQSTICRFESLTLSHNNMIALKPVLQAWLEEAE are within error of each other in abundance fitness: -0.18 ± 0.043 for the first, -0.25 ± 0.03 for the second.

RELEAFAERFKQRRIKLGVHQADVGAALANLKIPGVGSLSQSTICRFESLTLSHNNMIALKPVLQAWLEEAE and RELEAFAERFKQRRIKLGVIQADVGAALANLKIPGVGSLSQSTICRFESLTLSHNNMIALKPVLQAWLEEAE are within error of each other in abundance fitness: -0.221 ± 0.068 for the first, -0.623 ± 0.37 for the second.

First: RELEAFAERFKQRRIKLGVKQADVGAALANLKIPGVGSLSQSTICRFESLTLSHNNMIALKPVLQAWLEEAE
Second: RELEAFAERFKQRRIKLGVNQADVGAALANLKIPGVGSLSQSTICRFESLTLSHNNMIALKPVLQAWLEEAE
The abundance fitness of the first is higher: -0.183 ± 0.031 for the first, -0.318 ± 0.089 for the second.

RELEAFAERFKQRRIKLGVPQADVGAALANLKIPGVGSLSQSTICRFESLTLSHNNMIALKPVLQAWLEEAE and RELEAFAERFKQRRIKLGVQQADVGAALANLKIPGVGSLSQSTICRFESLTLSHNNMIALKPVLQAWLEEAE are within error of each other in abundance fitness: -0.273 ± 0.026 for the first, -0.27 ± 0.028 for the second.

First: RELEAFAERFKQRRIKLGVRQADVGAALANLKIPGVGSLSQSTICRFESLTLSHNNMIALKPVLQAWLEEAE
Second: RELEAFAERFKQRRIKLGVSQADVGAALANLKIPGVGSLSQSTICRFESLTLSHNNMIALKPVLQAWLEEAE
The abundance fitness of the first is lower: -0.258 ± 0.022 for the first, -0.095 ± 0.073 for the second.

RELEAFAERFKQRRIKLGVTAADVGAALANLKIPGVGSLSQSTICRFESLTLSHNNMIALKPVLQAWLEEAE and RELEAFAERFKQRRIKLGVTCADVGAALANLKIPGVGSLSQSTICRFESLTLSHNNMIALKPVLQAWLEEAE are within error of each other in abundance fitness: -0.086 ± 0.12 for the first, -0.243 ± 0.34 for the second.
